The experiment addresses ISCU(M108I) (human) (UniProt Q9H1K1). The experiment in a line: ITC.

The substance “human cysteine desulfurase complex (NIA)2, [NFS1]2:[ISD11]2:[Acp]2 (from UniProt Q9HD34 1-91; P0A6A8 1-78)” showed a dissociation constant Kd of 2600 nM.

For the origin of these results see article PMC5842376.
